From patent US20090041770A1

Target: human FcRn fused to a His-tag and glutathione S transferase (FcRn-His-GST), complex of FcRn heavy chain with beta-2-microglobulin (human) (UniProt P55899)
Test: AlphaScreen competition

FcRn Binding ratio Variant / WT | Substance
1.45 | N325D (antibody)
6.14 | E318Y (antibody)
1.55 | A327L (antibody)
1.13 | V264I/A330L/I332E (antibody)
4.29 | L328Q/I332E (antibody)
1.45 | N286Y (antibody)
1.23 | E269P (antibody)
1.25 | E294G (antibody)
7.3 | T260H (antibody)
1.02 | I332T (antibody)
1.99 | P271I (antibody)
1.03 | D270S (antibody)
5.91 | G237L (antibody)
1.16 | L328G (antibody)
1.31 | K222Y (antibody)
1.07 | S324T (antibody)
1.89 | G236N (antibody)
2.74 | D221Y (antibody)
1.53 | G236D (antibody)
1.28 | Y278M (antibody)
5.01 | P238K (antibody)
1.2 | I332Q (antibody)
1.02 | K274F (antibody)

FcRn Binding ratio Variant / WT | Substance
1.13 | K320H (antibody)
2.17 | E272P (antibody)
1.43 | I332Y (antibody)
1.43 | P238V (antibody)
1.11 | S239Q/I332N (antibody)
2.86 | S304T (antibody)
1.03 | E333L (antibody)
1.34 | E269G (antibody)
1.83 | E272R (antibody)
1.73 | S239D (antibody)
1.76 | H285K (antibody)
1.36 | G237E (antibody)
1.41 | G236P (antibody)
1.05 | K274E (antibody)
1.6 | G236M (antibody)
1.27 | N276V (antibody)
1.31 | E269S (antibody)
2.78 | Y296L (antibody)
1.18 | N276F (antibody)
1.22 | N325F (antibody)
1.2 | G237W (antibody)
1.77 | P228G (antibody)
5.68 | T225K (antibody)

FcRn Binding ratio Variant / WT | Substance
1.46 | L234F (antibody)
1.19 | N276H (antibody)
1.06 | L234N (antibody)
1.23 | Y278S (antibody)
1.14 | F243E (antibody)
1.04 | S239Q/I332Q (antibody)
1.33 | G236I (antibody)
1.01 | A327K (antibody)
1.38 | G236K (antibody)
1.16 | P230G (antibody)
3.39 | V264N (antibody)
1.15 | P238N (antibody)
1.35 | T335W (antibody)
1.29 | G237S (antibody)
1.82 | L328R (antibody)
2.44 | V302I (antibody)
59.3 | I332V (antibody)
1.77 | P331L (antibody)
1.36 | R292Y (antibody)
1.16 | S239G (antibody)
1.71 | H268E (antibody)
3.88 | P271T (antibody)
